Laboratory results as given in PMC3173486.

Assays:
[1] = biological target: HA of A/HongKong/156/97 (H5N1, clade 0) (influenza A virus A/HongKong/156/97 (H5N1)) (UniProt O56140)
[2] = biological target: HA of A/HongKong/156/97 (H5N1, clade 0) (influenza A virus A/HongKong/156/97 (H5N1)), O56140
[3] = biological target: HA of A/Indonesia/5/05 (H5N1, clade 2.1) (influenza A virus A/Indonesia/5/05 (H5N1))
[4] = biological target: HA of A/VietNam/1194/04 (H5N1, clade 1) (influenza A virus A/VietNam/1194/04 (H5N1))

RpSP-D trimers (from UniProt Q9N1X4 21-378) (natural protein)
HI assay: minimal inhibitory concentration of RpSP-D trimers; failed to inhibit [1]: > 4500 ng/100 µl

B1: recombinant porcine SP-D, Q9N1X4 21-378 (natural protein)
chain: AEMKTYSQRAVANACALVMCSPMENGLPGRDGRDGREGPRGEKGDPGLPGAVGRAGMPGLAGPVGPKGDNGSTGEPGAKGDIGPCGPPGPPGIPGPAGKEGPSGQQGNIGPPGTPGPKGETGPKGEVGALGMQGSTGARGPAGLKGERGAPGERGAPGSAGAAGPAGATGPQGPSGARGPPGLKGDRGPPGERGAKGESGLPGITALRQQVETLQGQVQRLQKAFSQYKKVELFPNGRGVGEKIFKTGGFEKTFQDAQQVCTQAGGQMASPRSETENEALSQLVTAQNKAAFLSMTDIKTEGNFTYPTGEPLVYANWAPGEPNNNGGSSGAENCVEIFPNGKWNDKACGELRLVICEF
HI assay: concentration of RpSP-D required to prevent hemagglutination [2]: 4500 ng/100 µl

B2: RpSP-D multimers (natural protein)
chain: AEMKTYSQRAVANACALVMCSPMENGLPGRDGRDGREGPRGEKGDPGLPGAVGRAGMPGLAGPVGPKGDNGSTGEPGAKGDIGPCGPPGPPGIPGPAGKEGPSGQQGNIGPPGTPGPKGETGPKGEVGALGMQGSTGARGPAGLKGERGAPGERGAPGSAGAAGPAGATGPQGPSGARGPPGLKGDRGPPGERGAKGESGLPGITALRQQVETLQGQVQRLQKAFSQYKKVELFPNGRGVGEKIFKTGGFEKTFQDAQQVCTQAGGQMASPRSETENEALSQLVTAQNKAAFLSMTDIKTEGNFTYPTGEPLVYANWAPGEPNNNGGSSGAENCVEIFPNGKWNDKACGELRLVICEF
HI assay: minimal inhibitory concentration of RpSP-D multimers (HA of the H5N1 viruses): 1400 ng/100 µl

B3: RpSP-D trimers (natural protein)
chain: AEMKTYSQRAVANACALVMCSPMENGLPGRDGRDGREGPRGEKGDPGLPGAVGRAGMPGLAGPVGPKGDNGSTGEPGAKGDIGPCGPPGPPGIPGPAGKEGPSGQQGNIGPPGTPGPKGETGPKGEVGALGMQGSTGARGPAGLKGERGAPGERGAPGSAGAAGPAGATGPQGPSGARGPPGLKGDRGPPGERGAKGESGLPGITALRQQVETLQGQVQRLQKAFSQYKKVELFPNGRGVGEKIFKTGGFEKTFQDAQQVCTQAGGQMASPRSETENEALSQLVTAQNKAAFLSMTDIKTEGNFTYPTGEPLVYANWAPGEPNNNGGSSGAENCVEIFPNGKWNDKACGELRLVICEF
HI assay: minimal inhibitory concentration of RpSP-D trimers; failed to inhibit [3]: > 4500 ng/100 µl
HI assay: minimal inhibitory concentration of RpSP-D trimers; failed to inhibit [4]: > 4500 ng/100 µl
